From publication PMC5988983 come the findings set out here.

Series [1] has as its target γ-Resorcylate decarboxylase (γ-RSD) from Polaromonas sp. JS666, His6-tagged (Polaromonas sp. JS666). Kind of series: crystal structure.
Substrate in series [2]: Cc1cc(O)c(C(=O)O)c(O)c1
The series can be described thus: purified protein. The format is biochemical, Polaromonas sp. JS666. The following applies: 50 mM HEPES pH 7.0, 30 °C.

Substrate in series [3]: O=C(O)c1c(O)cc(O)cc1O
Kind of series: purified protein. The conditions noted are these: 50 mM HEPES pH 7.0, 30 °C. It counts as biochemical, Polaromonas sp. JS666.

Substrate in series [4]: O=C(O)c1c(O)cccc1O
The series can be described thus: purified protein. It counts as biochemical, Polaromonas sp. JS666. The conditions noted are these: 50 mM HEPES pH 7.0, 30 °C.

Substrate in series [5]: O=C(O)c1cccc(O)c1O
The series can be described thus: purified protein. The format is biochemical, Polaromonas sp. JS666. The conditions noted are these: 50 mM HEPES pH 7.0, 30 °C.

Regarding “γ-Resorcylate decarboxylase (γ-RSD) from Polaromonas sp. JS666, His6-tagged (enzyme)”, in series [1], the stoichiometry N came out at 4.

B1: γ-RSD (γ-resorcylate decarboxylase) (Polaromonas sp. JS666) (protein)
chain: MNGKIALEEHFATEETLMDSAGFVPDKDWPELRSRLLDIQDRRVRLMDEHGIETMILSLNAPAVQAIADSTRANETARRANDFLAEQVAKQPTRFRGFAALPMQDPELAARELERCVKELGFVGALVNGFSQDNRSAVPLYYDMAQYWPFWETVQALDVPFYLHPRNPLPSDARIYDGHAWLLGPTWAFGQETAVHALRLMGSGLFDKYPALKIILGHMGEGLPYSMWRIDHRNAWIKTTPKYPAKRKIVDYFNENFYLTTSGNFRTQTLIDAILEIGADRILFSTDWPFENIDHAADWFENTSISEADRKKIGWGNAQNLFKLNR
Regarding B1, the Km in series [2] was determined as 79 ± 6 µM; in series [3], 48 ± 1 µM; in series [4] it was 32 ± 2 µM; in series [5], 111 ± 11 µM. The kcat in series [2] turned out to be 0.38 ± 0.01 s⁻¹; in series [3] it was 0.18 ± 0.01 s⁻¹; in series [4], 0.44 ± 0.01 s⁻¹; in series [5] it was 0.47 ± 0.02 s⁻¹. Besides, the kcat/Km in series [2] is 4800 ± 400 M⁻¹ s⁻¹; in series [3], 3800 ± 300 M⁻¹ s⁻¹; in series [4], 13000 ± 1000 M⁻¹ s⁻¹; in series [5] it was 4200 ± 500 M⁻¹ s⁻¹.
